From PMC8408140 (2021) come the findings set out here.

B1: TFEB-EGFP [not stated] / Flag-TNKS1 [not stated] (parent complex)
chain 1: MASRIGLRMQLMREQAQQEEQRERMQQQAVMHYMQQQQQQQQQQLGGPPTPAINTPVHFQSPPPVPGEVLKVQSYLENPTSYHLQQSQHQKVREYLSETYGNKFAAHISPAQGSPKPPPAASPGVRAGHVLSSSAGNSAPNSPMAMLHIGSNPERELDDVIDNIMRLDDVLGYINPEMQMPNTLPLSSSHLNVYSSDPQVTASLVGVTSSSCPADLTQKRELTDAESRALAKERQKKDNHNLIERRRRFNINDRIKELGMLIPKANDLDVRWNKGTILKASVDYIRRMQKDLQKSRELENHSRRLEMTNKQLWLRIQELEMQARVHGLPTTSPSGMNMAELAQQVVKQELPSEEGPGEALMLGAEVPDPEPLPALPPQAPLPLPTQPPSPFHHLDFSHSLSFGGREDEGPPGYPEPLAPGHGSPFPSLSKKDLDLMLLDDSLLPLASDPLLSTMSPEASKASSRRSSFSMEEGDVL
chain 2: MAASRRSQHHHHHHQQQLQPAPGASAPPPPPPPPLSPGLAPGTTPASPTASGLAPFASPRHGLALPEGDGSRDPPDRPRSPDPVDGTSCCSTTSTICTVAAAPVVPAVSTSSAAGVAPNPAGSGSNNSPSSSSSPTSSSSSSPSSPGSSLAESPEAAGVSSTAPLGPGAAGPGTGVPAVSGALRELLEACRNGDVSRVKRLVDAANVNAKDMAGRKSSPLHFAAGFGRKDVVEHLLQMGANVHARDDGGLIPLHNACSFGHAEVVSLLLCQGADPNARDNWNYTPLHEAAIKGKIDVCIVLLQHGADPNIRNTDGKSALDLADPSAKAVLTGEYKKDELLEAARSGNEEKLMALLTPLNVNCHASDGRKSTPLHLAAGYNRVRIVQLLLQHGADVHAKDKGGLVPLHNACSYGHYEVTELLLKHGACVNAMDLWQFTPLHEAASKNRVEVCSLLLSHGADPTLVNCHGKSAVDMAPTPELRERLTYEFKGHSLLQAAREADLAKVKKTLALEIINFKQPQSHETALHCAVASLHPKRKQVTELLLRKGANVNEKNKDFMTPLHVAAERAHNDVMEVLHKHGAKMNALDTLGQTALHRAALAGHLQTCRLLLSYGSDPSIISLQGFTAAQMGNEAVQQILSESTPIRTSDVDYRLLEASKAGDLETVKQLCSSQNVNCRDLEGRHSTPLHFAAGYNRVSVVEYLLHHGADVHAKDKGGLVPLHNACSYGHYEVAELLVRHGASVNVADLWKFTPLHEAAAKGKYEICKLLLKHGADPTKKNRDGNTPLDLVKEGDTDIQDLLRGDAALLDAAKKGCLARVQKLCTPENINCRDTQGRNSTPLHLAAGYNNLEVAEYLLEHGADVNAQDKGGLIPLHNAASYGHVDIAALLIKYNTCVNATDKWAFTPLHEAAQKGRTQLCALLLAHGADPTMKNQEGQTPLDLATADDIRALLIDAMPPEALPTCFKPQATVVSASLISPASTPSCLSAASSIDNLTGPLAELAVGGASNAGDGAAGTERKEGEVAGLDMNISQFLKSLGLEHLRDIFETEQITLDVLADMGHEELKEIGINAYGHRHKLIKGVERLLGGQQGTNPYLTFHCVNQGTILLDLAPEDKEYQSVEEEMQSTIREHRDGGNAGGIFNRYNVIRIQKVVNKKLRERFCHRQKEVSEENHNHHNERMLFHGSPFINAIIHKGFDERHAYIGGMFGAGIYFAENSSKSNQYVYGIGGGTGCPTHKDRSCYICHRQMLFCRVTLGKSFLQFSTMKMAHAPPGHHSVIGRPSVNGLAYAEYVIYRGEQAYPEYLITYQIMKPEAPSQTATAAEQKT

In the assay the parent is B1. In words: co-immunoprecipitation (anti-GFP IP, immunoblot quantification); HEK293T cells; three independent immunoblots; parent: 1; read off a plot. On the technique in general: A western blot detects proteins with antibodies after separation by electrophoresis.
Turning to chain 1 V65D, chain 1 G67V, chain 1 E68A, the ratio to parent was approximately 0.4.
